The target of this assay is Taxol-stabilized microtubules (porcine brain tubulin) (porcine). The assay can be described thus: TIRF single-molecule motility assay.
Taxol-stabilized microtubules (porcine brain tubulin) (porcine), sequence (P02550 whole entry, chain 1 of 2): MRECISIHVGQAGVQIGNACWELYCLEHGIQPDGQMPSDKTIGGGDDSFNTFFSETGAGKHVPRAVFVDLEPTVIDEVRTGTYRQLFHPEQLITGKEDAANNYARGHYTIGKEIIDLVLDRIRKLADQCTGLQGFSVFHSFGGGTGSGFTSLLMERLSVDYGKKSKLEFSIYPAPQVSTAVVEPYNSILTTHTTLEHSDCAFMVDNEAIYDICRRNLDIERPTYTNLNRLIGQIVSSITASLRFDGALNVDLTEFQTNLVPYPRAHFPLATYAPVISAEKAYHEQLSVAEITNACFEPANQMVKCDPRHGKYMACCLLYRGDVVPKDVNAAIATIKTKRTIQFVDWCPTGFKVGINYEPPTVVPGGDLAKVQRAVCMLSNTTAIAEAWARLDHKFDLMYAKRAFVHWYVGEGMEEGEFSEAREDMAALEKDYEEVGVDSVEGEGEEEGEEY
Taxol-stabilized microtubules (porcine brain tubulin) (porcine), sequence (P02554 whole entry, chain 2 of 2, further chain): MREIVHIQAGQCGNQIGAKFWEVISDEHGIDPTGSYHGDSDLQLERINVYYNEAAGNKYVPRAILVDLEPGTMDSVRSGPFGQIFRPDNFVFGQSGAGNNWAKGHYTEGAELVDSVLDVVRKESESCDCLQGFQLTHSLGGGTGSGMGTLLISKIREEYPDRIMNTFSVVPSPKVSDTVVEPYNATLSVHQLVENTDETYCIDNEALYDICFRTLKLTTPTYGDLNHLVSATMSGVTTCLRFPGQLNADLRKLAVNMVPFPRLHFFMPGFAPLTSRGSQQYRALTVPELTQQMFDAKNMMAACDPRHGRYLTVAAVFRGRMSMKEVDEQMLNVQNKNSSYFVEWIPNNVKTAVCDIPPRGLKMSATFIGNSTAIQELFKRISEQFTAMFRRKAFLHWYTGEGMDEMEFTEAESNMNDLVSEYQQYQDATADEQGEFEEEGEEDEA

In turn, “full-length KIF5A(∆exon27)::mSca (from UniProt Q12840 1-1032) (natural protein)” gave a landing rate (motors/μm/s/μM) of 8.3.

For the origin of these results see publication PMC9322661.
